According to patent US6350431B1, “Compounds” (Nycomed Imaging AS, priority 1997, dated 2002):

Legend:
HT-29 tumors [1] = test: Biodistribution of chromophore-polymer in HT-29 tumored mice after intravenous injection; type: in vivo, female immunodeficient mice; conditions: for injected dose localized in the tumor: after one hour, solution in phosphate buffered saline injected
Protocol: General Method Used For the Measurement of Chromophore-Polymer Distribution in the Mouse
Tac:N:NIH(S)-nufDF, female immunodef icient mice
Tac:Cr:NCr-nufBr, female immunodeficient mice
HT29-Human Colon Carcinoma
The mice were randomised into groups based on tumor volumes. On the day of the study, the test articles (Polymers 1,2) were injected into the mice via the tail vein. Chloroaluminium phthalocyanine tetrasulfonate was used as a reference compound (control) in one group of mice in these studies. […] The blood was collected by heart puncture and put into either EDTA or Lithium Heparin tubes. The samples were then spun down and the plasma was collected and weighed. The spleen, liver, kidneys, muscle and tumor were collected, rinsed with PBS and weighed in pre-tared tubes. The samples were then either refrigerated for immediate analysis or frozen at −20 degrees Celsius and subsequently analysed.
B) Plasma Collection and Preparation
Plasma was collected in tared Eppendorf tubes and the tubes were weighed. To each tube was added 1 mL of ethanol. The contents of the tubes were mixed with a vortex mixer and then micro-centrifuged at 14000 rpm for 2 min. The supernatant liquid was transferred by pipette into a clean and labelled Eppendorf tube. This procedure was repeated for all plasma samples. Each sample was transferred to a clean cuvette and the amount of chromophore was determined by absorbance at a predetermined wavelength. Concentration of the chromophore in the sample was determined by comparison with a standard curve generated from known concentrations of chromophore.
C) Organ Collection and Preparation
Organs were removed from the mice, placed in tared sample tubes, and the new weights were recorded. To each tube was added 1 mL of deionised water, and the organs were homogenised. The homogenate was transferred into a tared Eppendorf tube and the weight was recorded. To this homogenate was added 500 μl of ethanol, the mixture was mixed by vortex mixer, and the contents of the tube was centrifuged in a micro-centrifuge at 8000 rpm for 2 min. The supernatant was transferred by pipette into a clean Eppendorf tube. To the residual pellet was added 500 μl of ethanol, the mixture was mixed by shaking vigorously in a vortex mixer, and the sample was centrifuged again. The supernatants were combined, transferred to a clean cuvette, and the concentration of the chromophore was determined spectroscopically at pre-determined absorbance by comparison with the standard curve. The mean concentration of the chromophore in each organ was determined by regressional analysis.

Solubility of Sudan III = type: physicochemical
HT-29 tumors [2] = test: Photographic / visual light imaging of HT-29 tumors from mice 24 hours post injection of contrast agent; type: in vivo, female immunodeficient mice
Protocol: FIG. 4 is a photograph taken under room fluorescent light of female immunodeficient mice with exposed human HT-29 tumors 24 hours post intravenous (tail vein) injection with 0.1 mg/(g body weight) in PBS of the blue contrast agent NC100526. The labeled sheet to the right of the mice was spotted with PBS solutions of several contrast agents of this invention and then dried in order to show how they appear under various illumination and imaging conditions. The tumors (indicated by arrows) have been sliced to expose their interiors as well as their exteriors.
The light source was ambient fluorescent room light.
The photograph was taken with black-and-white infrared film using irradiation at 780 nm from an array of light-emitting diodes. These conditions gave maximum absorption and contrast enhancement of NC100448 as evidenced by the darkened spot of contrast agent on the paper chart.
FIGS. 8a and 8b are photographs of two views taken from different angles of HT-29 tumors sliced open and removed from mice at 24 hours post injection with 10 mg/(g body weight) of NC100505 in PBS and irradiated with 366 nm wavelength light. […] In the black and white photograph they appear as bright spots. Other organs and the skin appear normal.
FIG. 10a is a photograph of a collection of excised tumors viewed under ambient fluorescent room light. The top row contains tumors resected from mice at 24 hours post i.v. injection with NC100505 in PBS. The second, third, and fourth rows are tumors resected from mice 24 hours post i.v. injection with PBS solutions of NC100526, NC100448, and NC100524, respectively. […]
FIG. 11 is a photograph of a set of excised tumors irradiated with 780 nm infrared light that were removed from mice 24 hours post injection with PBS solutions of NC100448 (top row) and indocyanine green (bottom row). The image was recorded with an infrared sensitive CCD camera (Bischke, Type N-CCD-4024, fitted with a Computar TV Zoom lens 1:1.2/12.5-75) on VHS tape (Maxell HGX Plus) at 30 frames/sec using a Panasonic AG-1310P HQ Video Cassette Recorder with super 4-Head VHS SQPB). […]

[3] = one hour post intravenous injection of phosphate buffered saline solution, mice with HT-29 tumors
[4] = 3 hr, i.v. 0.05 mg/(g body weight) in PBS, HT 29 tumored mice
[5] = 6 hr, i.v. 0.05 mg/(g body weight) in PBS, HT 29 tumored mice
[6] = 24 hr, i.v. 0.05 mg/(g body weight) in PBS, HT 29 tumored mice
[7] = at 24 hours, i.v. 0.05 mg/(g body weight) in PBS
[8] = three hours post intravenous injection of phosphate buffered saline solution, mice with HT-29 tumors
[9] = three hours versus one hour post intravenous injection
[10] = female immunodeficient mice with HT-29 tumors
[11] = 6 hr after injection, Table 2, female immunodeficient mice with HT-29 tumors
[12] = 48 hr after injection, Table 2, mice with HT-29 tumors
[13] = within 24 hours, Table 2 experiment

For “chloroaluminum phthalocyanine tetrasulfonate [reference compound]”, which “detection in the tumor” value (HT-29 tumors [1]; [3]) is on record?
Its value is “negligibly detected”.

Which “solubility in sesame oil” value (Solubility of Sudan III) does the source give for `Oc1ccc2ccccc2c1N=Nc1ccc(N=Nc2ccccc2)cc1` [Sudan III] here?
The value was “soluble in sesame oil”.

And the solubility in water (Solubility of Sudan III)?
Its solubility in water is “very water insoluble”.

With “Bisthioether 2:1 Dye:Polymer Reaction Product Between 2-[2-[2-chloro-3-[[1,3-dihydro-1,1,-dimethyl-3-(3-sulfopropyl)-2H-benz[e]indol-2-ylidene]ethylidene]-5-(ethoxycarbonyl)-1-cyclohexen-1-yl]ethenyl]-1,1-dimethyl-3-(3-sulfopropyl)-1H-benz[e]indolium, Inner Salt, Sodium Salt and Disodium PEG3,400-α,ω-dithiolate [NC100448]” as the compound, how does the Plasma (HT-29 tumors [1]; [4]) read?
Its Plasma is 14.33 ± 1.33 percent injected dose of the contrast agent per gram of tissue.

And the Tumor (HT-29 tumors [1]; [4])?
The Tumor was 5.57 ± 0.73 percent injected dose of the contrast agent per gram of tissue.

What about the Plasma (HT-29 tumors [1]; [5]) of the same compound?
The Plasma was 8.44 ± 1.33 percent injected dose of the contrast agent per gram of tissue.

And the Tumor (HT-29 tumors [1]; [5])?
Its Tumor is 8.6 ± 1.53 percent injected dose of the contrast agent per gram of tissue.

And the Plasma (HT-29 tumors [1]; [6])?
Its Plasma is 0.46 ± 0.40 percent injected dose of the contrast agent per gram of tissue.

And the Tumor (HT-29 tumors [1]; [6])?
Its Tumor is 7.53 ± 0.74 percent injected dose of the contrast agent per gram of tissue.

What about the “clearance of contrast agent from the blood (in words)” value (HT-29 tumors [1]; [7]) of the same compound?
Its value is “largely cleared”.

And the “concentration of contrast agent in the tumors (in words)” value (HT-29 tumors [1]; [7])?
The value was “remained relatively high”.

What about the “contrast agent in the muscle (in words)” value (HT-29 tumors [1]; [7]) of the same compound?
Its value is “not increased”.

And the “detection in the tumor” value (HT-29 tumors [1]; [3])?
Its value is “detected in the tumor”.

And the “detection in the tumor” value (HT-29 tumors [1]; [8])?
The value was “detected in the tumor”.

And the “concentration of the contrast agent in the blood, FIG. 3B relative to FIG. 3A” value (HT-29 tumors [1]; [9])?
Its value is “decreased”.

And the “concentration of the contrast agent in the tumor, FIG. 3B relative to FIG. 3A” value (HT-29 tumors [1]; [9])?
The value was “increased”.

And the “appearance of tumors, black-and-white infrared film, irradiation at 780 nm” value (HT-29 tumors [2]; 24 hours after injection of 0.05 mg/(g body weight) in PBS, versus control tumors)?
Its value is “uniformly darker than control tumors”.

And the “appearance of excised tumors irradiated with 780 nm infrared light, infrared sensitive CCD camera” value (HT-29 tumors [2]; 24 hours post injection in PBS, compared to tumors from mice injected with ICG)?
The value was “significantly darker”.

What about the “contrast agent / darkening along the tumor edges” value (HT-29 tumors [2]; 24 hours post injection, sliced tumors) of the same compound?
Its value is “do not show darkening around the edges”.

Which “injected dose localized in the tumor” value (HT-29 tumors [1]; [10]) does the source give for “[NH(PEG3400)NHSO2PcAlCl (SO3H)2SO2]n [Example 18]” here?
The value was 4%.

For ClAlPc(SO2NHPEG5000)4 [Example 20], which “injected dose localized in the tumor” value (HT-29 tumors [1]; [10]) is on record?
The value was 2.5%.

What does the source list for “Aluminum Chlorophthalocyaninetetrasulfonyl Chloride Polymer With PEG3,400-α,ω-diamine [Polymer 1]”?
injected dose localized in the tumor (HT-29 tumors [1]; [10]): 4%; detection in the tumor (HT-29 tumors [1]; [3]): detected in the tumor

With `CC1(C)C(/C=C/C=C/C=C/C=C2\N(CCCCS(=O)(=O)O)c3ccc4ccccc4c3C2(C)C)=[N+](CCCCS(=O)(=O)[O-])c2ccc3ccccc3c21` [indocyanine green, reference compound] as the compound, how does the “detection in the tumor” value (HT-29 tumors [1]; [3]) read?
The value was “negligibly detected”.

What about the “detection in the tumor” value (HT-29 tumors [1]; [8]) of the same compound?
Its value is “negligibly detected”.

For “Aluminum Chlorophthalocyanine Tetrasulfonyl Chloride Polymer With PEG5,000-α,ω-diamine [Polymer 2]”, which “injected dose localized in the tumor” value (HT-29 tumors [1]; [10]) is on record?
The value was 2.5%.

What about the “detection in the tumor” value (HT-29 tumors [1]; [3]) of the same compound?
The value was “detected in the tumor”.

Which Muscle (HT-29 tumors [1]; [11]) does the source give for “[PcAlCl(SO3H)3SO2NH]2[PEG 10,000] [NC100481]” here?
The Muscle was 10.3 ± 17.9 percent injected dose of the contrast agent per gram of tissue.

What about the Plasma (HT-29 tumors [1]; [11]) of the same compound?
Its Plasma is 7.4 ± 0.3 percent injected dose of the contrast agent per gram of tissue.

What about the Tumor (HT-29 tumors [1]; [11]) of the same compound?
Its Tumor is 21.0 ± 7.1 percent injected dose of the contrast agent per gram of tissue.

What about the Tumor (HT-29 tumors [1]; 24 hr after injection, Table 2, mice with HT-29 tumors) of the same compound?
Its Tumor is 16.6 ± 3.9 percent injected dose of the contrast agent per gram of tissue.

And the Muscle (HT-29 tumors [1]; [12])?
The Muscle was 59.5 ± 42.9 percent injected dose of the contrast agent per gram of tissue.

And the Tumor (HT-29 tumors [1]; [12])?
Its Tumor is 9.1 ± 4.5 percent injected dose of the contrast agent per gram of tissue.

What about the “concentration of contrast agent in the tumor (in words)” value (HT-29 tumors [1]; after 48 hours, Table 2 experiment) of the same compound?
The value was “remained at a high concentration”.

And the “clearance of contrast agent from the blood (in words)” value (HT-29 tumors [1]; [13])?
The value was “cleared”.

What about the “clearance of contrast agent from the muscle (in words)” value (HT-29 tumors [1]; [13]) of the same compound?
The value was “cleared”.
